From patent US20150086592A1, “COMPOSITIONS OF VACCINES AND ADJUVANTS AND METHODS FOR THE TREATMENT OF URINARY TRACT INFECTIONS” (Sequoia Sciences, Inc, priority 2013, published 2015)
“And” between values parts separate entries of the source, which are not always exact repeats. Equal values may be shown once.

How the values were obtained:
FimH [1] = target: FimH (Escherichia coli, UniProt P08191); experiment: biochemical; conditions: concentration at which 50% inhibition of HRP binding to FimH is observed, inhibitor added in the HRP binding step
Experimental: (§1) The biological activity of the FimCH drug substance (for example, from Example 3) is determined by an in vitro mannose binding assay. The FimH protein is a bacterial adhesin utilized by E. coli to bind mannose residues on glycosylated proteins. During urinary tract infections, the FimH adhesin binds mannosylated uroplakin proteins on bladder epithelial cells, which promotes the internalization of bound E. coli. The binding of FimH to mannosylated uroplakin is essential for E. coli to cause urinary tract infections. To monitor the mannose-binding activity of FimH in vitro, FimH binding to the enzyme horseradish peroxidase (HRP) is observed. HRP is a glycosylated protein containing mannose residues, and has previously been used to study mammalian mannose-binding receptors. Complexes of HRP and the lectin ConA, which binds α-D-mannosyl and α-D-glucosyl groups, have also been generated and studied.
(§2) HRP is then added, excess HRP is rinsed away, and the activity of bound HRP is detected.

FimH [2] = target: FimH (Escherichia coli, UniProt P08191, P197R/T222H); experiment: biochemical
Experimental: as §1, §2

[3] = Storage stability of FimCH; assay type: physicochemical; conditions: stored at −20° C., 0.3 mg/mL in 20 mM MES pH 5.9 or 20 mM trisodium citrate, pH 5.4
Experimental: For the HIC column used Butyl Sepharose 4FF (GE Healthcare 17-0980-01) in XK26 column. Buffer C: 20 mM MES/550 mM Ammonium Sulfate, pH 5.9; 8 ml/min for XK26/10 except loading, pre-equilibrate the column with 3 CV of Buffer A (as above), equilibrate the column with 6 CV of Buffer C, load Pooled FimCH sample at 5 ml/min XK26/10 column, wash the column with 6 CV of Buffer C, elute the column with a linear 4 CV gradient from 0-100% Buffer A with fraction collection. FimCH is formulated in the concentration of 0.3 mg/mL in 20 mM MES pH 5.9 or 20 mM trisodium citrate, pH 5.4. It is then aseptically filtered through a 0.2 μm sterile filter. FimCH is stable and can be stored at −20° C. for about at least 2 years.

[4] = target: T1, horseradish peroxidase (HRP) (UniProt P00433 31-338); experiment: in vitro potency assay; inferred from the lack of HRP signal with the Q133K FimH-FimC complex
T1 sequence: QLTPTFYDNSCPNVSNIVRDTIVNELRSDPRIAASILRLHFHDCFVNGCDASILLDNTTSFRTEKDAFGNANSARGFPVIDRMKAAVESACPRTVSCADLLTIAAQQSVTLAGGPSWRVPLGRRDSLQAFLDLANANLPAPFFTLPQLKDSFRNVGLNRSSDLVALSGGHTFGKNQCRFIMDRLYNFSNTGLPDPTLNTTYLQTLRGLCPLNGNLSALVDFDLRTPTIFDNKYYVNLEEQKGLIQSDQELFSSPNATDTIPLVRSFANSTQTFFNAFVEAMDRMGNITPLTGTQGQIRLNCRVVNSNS

Sequence of FimH (Escherichia coli, UniProt P08191) (P08191 22-300 P197R/T222H, one chain of several): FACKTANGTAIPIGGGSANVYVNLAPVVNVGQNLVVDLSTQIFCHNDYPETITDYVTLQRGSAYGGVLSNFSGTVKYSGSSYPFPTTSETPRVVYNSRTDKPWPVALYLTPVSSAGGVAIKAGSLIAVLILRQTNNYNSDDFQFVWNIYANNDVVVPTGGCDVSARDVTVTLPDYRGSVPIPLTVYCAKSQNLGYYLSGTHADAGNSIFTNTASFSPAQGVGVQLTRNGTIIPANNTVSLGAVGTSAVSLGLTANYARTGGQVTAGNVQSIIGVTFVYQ
Sequence of FimH (Escherichia coli, UniProt P08191, P197R/T222H) (P08191 22-300 P197R/T222H, one chain of several): as above

CO[C@H]1O[C@H](CO)[C@@H](O)[C@H](O)[C@@H]1O [MDMP, methyl-α-D-mannopyranoside]
IC50 (FimH [1]): ~5.15 µM and ~5.1 µM | fold higher 50% inhibition concentration than UFMP (FimH [2]; MDMP versus UFMP): approximately 100 fold

FimCH: non-covalent complex of FimC and FimH recombinant proteins, approximately 51,700 Daltons
HRP binding (mannose-binding activity) (FimH [2]; captured by anti-FimH antisera on ELISA plate): dose-dependent | time stable on storage [3]: at least 2 years

B1: FimC (other)
chain: GVALGATRVIYPAGQKQVQLAVTNNDENSTYLIQSWVENADGVKDGRFIVTPPLFAMKGKKENTLRILDATNNQLPQDRESLFWMNVKAIPSMDKSKLTENTLQLAIISRIKLYYRPAKLALPPDQAAEKLRFRRSANSLTLINPTPYYLTVTELNAGTRVLENALVPPMGESAVKLPSDAGSNITYRTINDYGALTPKMTGVME
notes: also called FimC protein
binding result [4]: no binding
